Target: the molecule itself
Experiment: cryo-EM structure; Encap/IDM complex coexpressed in insect cells, purified by Ni-NTA and Superdex 200; icosahedral reconstruction of the encapsulin shell at 2.87 Å, C1 reconstruction at 4.29 Å

B1: Thermotoga maritima encapsulin capsid protein, C-terminus His-tagged (natural protein)
chain: MEFLKRSFAPLTEKQWQEIDNRAREIFKTQLYGRKFVDVEGPYGWEYAAHPLGEVEVLSDENEVVKWGLRKSLPLIELRATFTLDLWELDNLERGKPNVDLSSLEETVRKVAEFEDEVIFRGCEKSGVKGLLSFEERKIECGSTPKDLLEAIVRALSIFSKDGIEGPYTLVINTDRWINFLKEEAGHYPLEKRVEECLRGGKIITTPRIEDALVVSERGGDFKLILGQDLSIGYEDREKDAVRLFITETFTFQVVNPEALILLKF
notes: T. maritima encapsulin capsid protein; gene amplified from pET14-GFP30-Encap (Addgene #86406); model built from PDB 3DKT; Assembles into an icosahedral shell with 12 fivefold pores; its symmetry expansion ('the other expanded 59 sets') implies 60; also called encapsulin shell; source: insect cells (baculovirus, pFastBac1), coexpressed with cargo, purified (Ni-NTA, Superdex 200); not shown: His …
binding result: binds

Reference: PMC7565527, “Cryo-EM Structure of Heterologous Protein Complex Loaded Thermotoga Maritima Encapsulin Capsid” (Biomolecules, 2020)
